Results: patent US10465009B2, “BCMA antigen binding proteins” (Amgen Inc., priority 2012, dated 2019)

Experiments:
[1] = molecular target: T1, BCMA (Homo sapiens, UniProt Q02223, N81S); assay: FACS binding on cells transiently transfected to express full length BCMA; details: MFI vs negative control
T1 construct: cells transiently transfected to express full length BCMA, TACI, or BAFF-R; expressed in transfected cells
T1 sequence (Q02223 1-184 N81S): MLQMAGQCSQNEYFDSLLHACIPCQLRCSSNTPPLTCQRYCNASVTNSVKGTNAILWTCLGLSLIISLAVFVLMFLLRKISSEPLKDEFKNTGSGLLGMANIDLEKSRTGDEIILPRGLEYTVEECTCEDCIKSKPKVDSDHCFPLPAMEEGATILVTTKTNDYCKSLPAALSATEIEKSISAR
Description: An important criterion is exquisite selectivity for wild-type human BCMA expressed on the surface of cells. FACS binding on cells transiently transfected to express full length BCMA, TACI, or BAFF-R was performed using standard techniques. Approximately 40×10^6 of the transiently-transfected target cells were resuspended in a staining solution (2% goat serum, 1% rabbit serum, 0.02% azide in PBS) and aliquoted into round-bottom, 96-well plate (Corning Incorp., Acton, Mass.) as per the experiment design. The cells were incubated at 4 degrees celsius for 30 minutes to block non-specific sites. The antibodies were titrated into the staining solution. The cells were rinsed in a rinse solution (PBS+0.02% azide) by resuspending the cells in 200 ul/well. The cells were centrifuged at 1500 rpm at 4 degrees celsius for 7 minutes. The rinse solution was removed and the rinse step was repeated. The cells were resuspended in the appropriate antibody solution (see the matrix in TABLE 4) at 30 ul/well and incubated at 4 degrees celsius for 30 minutes. […] For the mouse IgG1 negative control and the two mouse antibodies (1.183 and 1.288), the secondary reagent was an anti-mouse IgG-PE conjugate (BD Pharmingen Cat. 550589). The cells/antibodies were rinsed as described above to remove excess/unbound antibody. […] Samples were read at 532 nm wavelength on FACS. […]

[2] = molecular target: T2, huBCMA on H929 cells (Homo sapiens, UniProt Q02223, N81S); assay: FACS binding to native BCMA on H929 myeloma cells; details: flow cytometry; muteins relative to parental 2A1
T2 construct: endogenous in cells; host or cells: H929 human multiple myeloma cell line
T2 sequence (Q02223 1-184 N81S): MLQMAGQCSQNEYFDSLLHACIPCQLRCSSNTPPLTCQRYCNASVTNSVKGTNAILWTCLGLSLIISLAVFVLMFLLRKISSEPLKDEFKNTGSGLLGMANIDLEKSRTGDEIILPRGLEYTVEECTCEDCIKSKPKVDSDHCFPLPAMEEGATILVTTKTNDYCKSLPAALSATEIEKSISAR
Description: Approximately 10 to 40×10^6 of H929 myeloma cells were resuspended in a staining solution (2% goat serum, 1% rabbit serum, 0.02% azide in PBS) and aliquoted into round-bottom, 96-well plate (Corning Incorp., Acton, Mass.) as per the experiment design. The cells were incubated at 4 degrees celsius for 30 minutes to block non-specific sites. The antibodies were titrated into the staining solution. The cells were rinsed in a rinse solution (PBS+0.02% azide) by resuspending the cells in 200 ul/well. The cells were centrifuged at 1500 rpm at 4 degrees celsius for 7 minutes. The rinse solution was removed and the rinse step was repeated. […] The huIgG1 negative control's secondary reagent was a biotinylated anti-huIgG (Jackson Labs, Bar Harbor, Me., Cat. 109-065-098), followed by a streptavidin-phycoerythrin (SA-PE) conjugate (BD Pharmingen, San Diego, Calif., Cat. 554061). […] The cells/antibodies were rinsed as described above to remove excess/unbound antibody. […] Samples were read at 532 nm wavelength on FACS.
To further characterize the engineered mutein antibodies, they were tested for the ability to bind BCMA by FACS analysis. […] The supernatants were removed and the cell pellets were resuspended in 0.2 mL/tube 4% paraformaldehyde in PBS and analyzed by flow cytometry

- binding to BCMA on H929 cells [2]: bound to human BCMA
B1: 1E1: fully human anti-huBCMA mAb, Vh SEQ ID NO:212, Vl SEQ ID NO:246 (antibody, V domains shown)
VH: QVQLVQSGAEVKKPGASVKVSCKASGYTFTGHYIHWVRQAPGQGLEWMGWIYPNSGGTNYAQKFQGRVTMTRDTSISTAYMELSRLRSDDSAVYYCAREGMVTGDYYYYRMDVWGQGTTVIVSS
VL: QPVLTQPPSASASLGASVTLTCSLSSGYSNYKVDWYQQRPGKGPRFVMRVGIGGIVGSKGDGIPDRFSVLGSGLNRYLTIKNIQEEDESDFHCGADHGSGNNFVYVFGTGTKVTVLG
- BCMA (FACS binding) [1]: + (A sample was considered positive for binding if the MFI was two times the negative control value)
